These are literature values, as cited in article PMC7531836.

pKd: −log10 of the molar value.

For the data set, the target named is C5 (Homo sapiens) (UniProt P01031).

The term pKd denotes the negative decadic logarithm of the Kd, by convention in mol/L. As to eculizumab, the pKd is 9.92.
